Measurements: paper PMC4970707

B1: Spo0F from B. thuringiensis (6His-Spo0F) (natural protein)
chain: MEGKILIVDDQYGIRVLLHEVFQKEGYQTFQAANGFQALDIVKKDNPDLVVLDMKIPGMDGIEIFKACKEIDESIKVILMSAYGELDMIQEAKDLGALMHFAKPFDIDEIRQAVRNELAVEA

How the values were obtained:
[1] = target: NprR(ΔHTH)(Y223A/F225A) (Bacillus thuringiensis (strain 407)); assay: crystal structure; NprR(ΔHTH)(Y223A/F225A) alone, crystallized at 18°C in 1.0 M Na citrate, 0.1 M Hepes pH 7.6; 3.25 Å, space group P 21 21 21, 2 molecules per asymmetric unit
[2] = target: NprR from B. thuringiensis strain 407 (NprR-6His) (Bacillus thuringiensis (strain 407)); assay: MST; 33 nM NprR labelled with NT-495-NHS; Bt Spo0F serially diluted from about 260 μM to 8 nM; 5% glycerol in MST buffer (50 mM Tris-HCl pH 7.4, 150 mM NaCl, 10 mM MgCl2, 0.05% Tween-20); 20% LED power, 40% IR-laser power; absence of NprX; apparent Kd

Molecule | stoichiometry N [1] | Kd [2]
NprR(ΔHTH)(Y223A/F225A) (domain or fragment) | 2 | –
B1 | – | 5 µM
